Results on three molecules are retold here after publication PMC9798831.

The target of data set [1] is ShTnsC (Scytonema hofmanni).
The next data set addresses T1, ShTniQ;ShTnsC (Scytonema hofmanni;Scytonema hofmanni, UniProt A0ABR8GRC6;A0ABR8GR16 1-167;1-276, |).
T1 sequence 1: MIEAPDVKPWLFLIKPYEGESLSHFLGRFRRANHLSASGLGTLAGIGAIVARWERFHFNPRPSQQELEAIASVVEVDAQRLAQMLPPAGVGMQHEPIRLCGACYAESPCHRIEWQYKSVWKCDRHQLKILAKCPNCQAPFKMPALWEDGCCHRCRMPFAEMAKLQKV
T1 sequence 2: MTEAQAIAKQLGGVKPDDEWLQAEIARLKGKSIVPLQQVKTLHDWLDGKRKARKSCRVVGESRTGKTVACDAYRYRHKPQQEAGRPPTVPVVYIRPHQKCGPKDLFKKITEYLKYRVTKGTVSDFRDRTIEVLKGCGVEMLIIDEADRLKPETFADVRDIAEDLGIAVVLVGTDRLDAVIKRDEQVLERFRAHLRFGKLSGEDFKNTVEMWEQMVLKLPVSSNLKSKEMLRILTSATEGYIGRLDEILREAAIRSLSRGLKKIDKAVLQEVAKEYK
Briefly: cryo-EM.

For “TniQ with alanine substitution of Trp10 (natural protein)”, the site-specific transposition activity of ShCAST in E. coli (ddPCR) in data set [1] was above 90 % reduction.

In turn, “TniQ with glutamate substitution of Arg155 (natural protein)” yielded a site-specific transposition activity of ShCAST in E. coli (ddPCR) in data set [1] of 50 % reduction.

B1: Target_69 duplex (oIQ088/oIQ089) (dsDNA)
DNA 1: GCGAAGGCTTAATCATCGTGGATGAAGCCGACCACCTCGATTACCCCACGCTTGAAGAACTGCGGATCC
DNA 2: GGATCCGCAGTTCTTCAAGCGTGGGGTAATCGAGGTGGTCGGCTTCATCCACGATGATTAAGCCTTCGC
Take B1: the binding result with ShTniQ;ShTnsC is given as “binds”.
